The record followed here is PMC4423211 (2015).

In general, stoichiometry N refers to the number of molecules, sites or subunits per partner or assembly. As a reminder, the Kd is a measure of binding affinity in units of concentration.

Test [1] addresses IL1RAPL1-ECD-His6, wild type (mouse) (UniProt P59823). The test is described as follows: crystal structure; sitting drop vapour diffusion at 20 °C; the two proteins mixed at a molar ratio of 1:1 to about 6 g/l before crystallisation.
Test [2] shares this target. The test is described as follows: SPR; equilibrium; Biacore T200, 25 °C, 10 mM Hepes (pH 7.9), 150 mM NaCl, 0.05% Tween-20; IL1RAPL1-ECD-His6 amine-coupled on a CM5 chip (about 2,000 RU); PTPδ Ig1–Fn1 variants or mutants injected as analytes, 15.6 to 4,000 nM.
Test [3] addresses IL1RAPL1-ECD D37A (mouse) (UniProt P59823). Described as above.
Test [4] deals with IL1RAPL1-ECD M75A/Y77A/P88A/F91A (mouse) (UniProt P59823). The test is described as above.
Test [5] has as its target IL1RAPL1-ECD D292A (mouse) (UniProt P59823). The description is as above.
The target in test [6] is IL-1RAcP-ECD K94A (mouse) (UniProt Q61730). The test is described as follows: SPR; equilibrium; Biacore T200, 25 °C, 10 mM Hepes (pH 7.9), 150 mM NaCl, 0.05% Tween-20; IL-1RAcP-ECD-Fc captured (about 700 RU) by anti-Fc antibodies immobilised on a CM5 chip; PTPδ Ig1–Fn1 variants or mutants injected as analytes, 15.6 to 4,000 nM. (In general: Surface plasmon resonance follows binding to a sensor surface in real time, without labels.)

In test [7] the target is IL-1RAcP-ECD-Fc, wild type (mouse) (UniProt Q61730). Described as above.
The target of test [8] is IL-1RAcP-ECD W27A (mouse) (UniProt Q61730). The test is described as above.
Test [9] addresses IL-1RAcP-ECD D30A (mouse) (UniProt Q61730). Described as above.
For test [10], the target named is IL-1RAcP-ECD (His6-tagged, for crystallography) (mouse) (UniProt Q61730). The test is described as follows: crystal structure; sitting drop vapour diffusion at 20 °C; the two proteins mixed at a molar ratio of 1:1 to about 6 g/l before crystallisation.
IL-1RAcP-ECD (His6-tagged, for crystallography) (mouse), sequence (Q61730 21-351): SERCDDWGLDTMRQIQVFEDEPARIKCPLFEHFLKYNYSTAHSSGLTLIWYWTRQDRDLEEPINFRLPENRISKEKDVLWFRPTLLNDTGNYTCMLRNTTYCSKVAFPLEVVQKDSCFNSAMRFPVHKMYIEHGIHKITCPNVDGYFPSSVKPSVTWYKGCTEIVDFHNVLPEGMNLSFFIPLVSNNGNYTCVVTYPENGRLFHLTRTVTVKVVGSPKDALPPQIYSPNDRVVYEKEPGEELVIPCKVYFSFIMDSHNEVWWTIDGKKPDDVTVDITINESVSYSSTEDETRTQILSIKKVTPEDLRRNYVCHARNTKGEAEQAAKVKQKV

IL1RAPL1-ECD-His6, wild type (mouse), sequence (P59823 19-352): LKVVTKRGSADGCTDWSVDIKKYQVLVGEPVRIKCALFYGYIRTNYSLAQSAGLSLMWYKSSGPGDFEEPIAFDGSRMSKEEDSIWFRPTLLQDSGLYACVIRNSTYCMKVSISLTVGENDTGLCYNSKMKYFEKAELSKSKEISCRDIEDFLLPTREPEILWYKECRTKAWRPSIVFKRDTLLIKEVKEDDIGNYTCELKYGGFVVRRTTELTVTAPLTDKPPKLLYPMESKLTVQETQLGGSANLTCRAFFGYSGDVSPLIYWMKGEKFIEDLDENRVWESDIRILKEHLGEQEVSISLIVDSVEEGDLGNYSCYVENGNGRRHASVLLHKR
IL1RAPL1-ECD M75A/Y77A/P88A/F91A (mouse), sequence (P59823 19-352 M75A/Y77A/P88A/F91A): as the sequence (P59823 19-352) above, with M57A, Y59A, P70A, F73A counted along it
IL-1RAcP-ECD K94A (mouse), sequence (Q61730 21-367 K94A): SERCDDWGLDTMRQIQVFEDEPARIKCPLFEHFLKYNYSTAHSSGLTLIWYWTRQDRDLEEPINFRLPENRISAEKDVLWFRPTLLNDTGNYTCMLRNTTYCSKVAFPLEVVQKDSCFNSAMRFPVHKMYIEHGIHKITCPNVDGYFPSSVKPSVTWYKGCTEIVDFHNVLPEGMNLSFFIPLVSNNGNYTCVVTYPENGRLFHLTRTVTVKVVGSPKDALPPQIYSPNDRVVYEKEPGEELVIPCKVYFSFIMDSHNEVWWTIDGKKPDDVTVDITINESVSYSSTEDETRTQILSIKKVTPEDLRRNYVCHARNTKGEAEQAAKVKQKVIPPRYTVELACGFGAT
IL-1RAcP-ECD W27A (mouse), sequence (Q61730 21-367 W27A): as the sequence (Q61730 21-367 K94A) above, with W7A, A74K counted along it
IL-1RAcP-ECD-Fc, wild type (mouse), sequence (Q61730 21-367): as the sequence (Q61730 21-367 K94A) above, with A74K counted along it
IL-1RAcP-ECD D30A (mouse), sequence (Q61730 21-367 D30A): as the sequence (Q61730 21-367 K94A) above, with D10A, A74K counted along it
IL1RAPL1-ECD D37A (mouse), sequence (P59823 19-352 D37A): as the sequence (P59823 19-352) above, with D19A counted along it
IL1RAPL1-ECD D292A (mouse), sequence (P59823 19-352 D292A): as the sequence (P59823 19-352) above, with D274A counted along it

Consider “PTPδ-ECD (full-length extracellular domain) (domain or fragment)”, for which the stoichiometry N in test [1] was 1.
Turning to “PTPδ Ig1–Fn1 (isoform containing meA9 and meB), wild type (domain or fragment)”, the Kd in [2] is 150 nM; in test [3], 2400 nM; in test [4], 2800 nM; in [5], 2200 nM; in [6], 8200 nM; in [7], 680 nM. In addition, the results for the Kd in test [8] and in test [9] were 4600 nM and 620 nM, respectively.
As for PTPδ Ig1–Fn2 (domain or fragment), the stoichiometry N in [10] stood at 1.
